From article PMC6486541 (Nucleic Acids Research, 2019) come the findings set out here.

The term stoichiometry N denotes the number of molecules, sites or subunits per partner or assembly. Broadly, the Kd is a measure of binding affinity in units of concentration. High values mean weaker binding, low ones tighter binding.

The target of data set [1] is T1, OsWRKY45-DBD (OsWRKY45-1) (Oryza sativa Japonica subspecies, UniProt Q5W6D6 104-182).
T1 sequence: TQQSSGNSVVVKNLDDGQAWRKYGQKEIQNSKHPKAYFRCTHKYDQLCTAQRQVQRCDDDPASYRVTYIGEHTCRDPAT
Nature of the data set: EMSA. For orientation: A gel shift assay detects complexes by their altered migration in electrophoresis.

The data set “AUC” deals with the molecule itself. Nature of the data set: AUC.
Data set [2] has as its target T1, OsWRKY45-DBD (OsWRKY45-1). Description: BLI. On the technique in general: In BLI a coated tip is dipped into the sample, and binding shifts an interference pattern.
The target in another data set is T2, OsWRKY45-DBD R142A (Oryza sativa Japonica subspecies, UniProt Q5W6D6 104-182, R142A).
T2 sequence: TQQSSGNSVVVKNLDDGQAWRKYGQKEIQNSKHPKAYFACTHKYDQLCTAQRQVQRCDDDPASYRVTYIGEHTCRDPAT
Description: BLI.

For data set [3], the target named is T3, OsWRKY45-DBD L150M (= OsWRKY45-2-DBD) (Oryza sativa Japonica subspecies, UniProt Q5W6D6 104-182, L150M).
T3 sequence: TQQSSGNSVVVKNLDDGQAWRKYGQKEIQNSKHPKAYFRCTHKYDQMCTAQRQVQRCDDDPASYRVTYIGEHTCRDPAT
Nature of the data set: BLI.

B1: MUT11A (dsDNA)
DNA 1: GATATTTGACAGGA
DNA 2: TCCTGTCAAATATC
In the case of B1, in data set [1], the binding result is “no binding”.

B2: MUT8A (dsDNA)
DNA 1: GATATTTAACCGGA
DNA 2: TCCGGTTAAATATC
As to B2, the binding result in data set [1] was “no binding”.

B3: MUT9C (dsDNA)
DNA 1: GATATTTGCCCGGA
DNA 2: TCCGGGCAAATATC
Consider B3, for which the binding result in data set [1] is reported as “no binding”.

B4: OsWRKY45–DBD (DNA binding domain of OsWRKY45, residues 104–182) (domain or fragment)
chain: TQQSSGNSVVVKNLDDGQAWRKYGQKEIQNSKHPKAYFRCTHKYDQLCTAQRQVQRCDDDPASYRVTYIGEHTCRDPAT
For the molecule B4, the “stoichiometry N” value in “AUC” amounted to 2.

B5: MUT10A (dsDNA)
DNA 1: GATATTTGAACGGA
DNA 2: TCCGTTCAAATATC
With B5, the binding result in data set [1] is listed as “no binding”.

B6: MUT7C (dsDNA)
DNA 1: GATATTCGACCGGA
DNA 2: TCCGGTCGAATATC
As for B6, the binding result in data set [1] was “no binding”.

B7: DNA-1 (W-box DNA) (dsDNA)
DNA 1: GATATTTGACCGGA
DNA 2: TCCGGTCAAATATC
Turning to B7, the figures for the equilibrium dissociation constant (Kd) (in data set [2]; with OsWRKY45-DBD R142A; in data set [3]) were 4.6 µM, 13.8 µM and 7.7 µM, respectively.

B8: MUT11T (dsDNA)
DNA 1: GATATTTGACTGGA
DNA 2: TCCAGTCAAATATC
On to B8, for which the binding result in data set [1] is “binds”.
